These results are taken from article PMC4520773 (Journal of molecular biology, 2015).

In assay [1] the target is T1, huntingtin exon 1-thioredoxin (TRX) fusion protein with 16 glutamines (Homo sapiens, UniProt P42858, strain). Kind of assay: small angle X-ray scattering.
Assay [2] has as its target T2, huntingtin exon 1-thioredoxin (TRX) fusion protein with 39 glutamines (Homo sapiens, UniProt P42858, strain). Kind of assay: SEC. (SEC sorts molecules by how far they enter the pores of the column.)
Assay [3] has as its target T1, huntingtin exon 1-thioredoxin (TRX) …. Kind of assay: SEC-MALS.
Assay [4] concerns the target T2, huntingtin exon 1-thioredoxin (TRX) …. As to the kind of experiment: SEC-MALS.

“And” between values parts separate entries of the source, which are not always exact repeats. Equal entries are not always repeated.

T2 sequence (P42858 whole entry, looked up, change not shown, the tested form may be a part): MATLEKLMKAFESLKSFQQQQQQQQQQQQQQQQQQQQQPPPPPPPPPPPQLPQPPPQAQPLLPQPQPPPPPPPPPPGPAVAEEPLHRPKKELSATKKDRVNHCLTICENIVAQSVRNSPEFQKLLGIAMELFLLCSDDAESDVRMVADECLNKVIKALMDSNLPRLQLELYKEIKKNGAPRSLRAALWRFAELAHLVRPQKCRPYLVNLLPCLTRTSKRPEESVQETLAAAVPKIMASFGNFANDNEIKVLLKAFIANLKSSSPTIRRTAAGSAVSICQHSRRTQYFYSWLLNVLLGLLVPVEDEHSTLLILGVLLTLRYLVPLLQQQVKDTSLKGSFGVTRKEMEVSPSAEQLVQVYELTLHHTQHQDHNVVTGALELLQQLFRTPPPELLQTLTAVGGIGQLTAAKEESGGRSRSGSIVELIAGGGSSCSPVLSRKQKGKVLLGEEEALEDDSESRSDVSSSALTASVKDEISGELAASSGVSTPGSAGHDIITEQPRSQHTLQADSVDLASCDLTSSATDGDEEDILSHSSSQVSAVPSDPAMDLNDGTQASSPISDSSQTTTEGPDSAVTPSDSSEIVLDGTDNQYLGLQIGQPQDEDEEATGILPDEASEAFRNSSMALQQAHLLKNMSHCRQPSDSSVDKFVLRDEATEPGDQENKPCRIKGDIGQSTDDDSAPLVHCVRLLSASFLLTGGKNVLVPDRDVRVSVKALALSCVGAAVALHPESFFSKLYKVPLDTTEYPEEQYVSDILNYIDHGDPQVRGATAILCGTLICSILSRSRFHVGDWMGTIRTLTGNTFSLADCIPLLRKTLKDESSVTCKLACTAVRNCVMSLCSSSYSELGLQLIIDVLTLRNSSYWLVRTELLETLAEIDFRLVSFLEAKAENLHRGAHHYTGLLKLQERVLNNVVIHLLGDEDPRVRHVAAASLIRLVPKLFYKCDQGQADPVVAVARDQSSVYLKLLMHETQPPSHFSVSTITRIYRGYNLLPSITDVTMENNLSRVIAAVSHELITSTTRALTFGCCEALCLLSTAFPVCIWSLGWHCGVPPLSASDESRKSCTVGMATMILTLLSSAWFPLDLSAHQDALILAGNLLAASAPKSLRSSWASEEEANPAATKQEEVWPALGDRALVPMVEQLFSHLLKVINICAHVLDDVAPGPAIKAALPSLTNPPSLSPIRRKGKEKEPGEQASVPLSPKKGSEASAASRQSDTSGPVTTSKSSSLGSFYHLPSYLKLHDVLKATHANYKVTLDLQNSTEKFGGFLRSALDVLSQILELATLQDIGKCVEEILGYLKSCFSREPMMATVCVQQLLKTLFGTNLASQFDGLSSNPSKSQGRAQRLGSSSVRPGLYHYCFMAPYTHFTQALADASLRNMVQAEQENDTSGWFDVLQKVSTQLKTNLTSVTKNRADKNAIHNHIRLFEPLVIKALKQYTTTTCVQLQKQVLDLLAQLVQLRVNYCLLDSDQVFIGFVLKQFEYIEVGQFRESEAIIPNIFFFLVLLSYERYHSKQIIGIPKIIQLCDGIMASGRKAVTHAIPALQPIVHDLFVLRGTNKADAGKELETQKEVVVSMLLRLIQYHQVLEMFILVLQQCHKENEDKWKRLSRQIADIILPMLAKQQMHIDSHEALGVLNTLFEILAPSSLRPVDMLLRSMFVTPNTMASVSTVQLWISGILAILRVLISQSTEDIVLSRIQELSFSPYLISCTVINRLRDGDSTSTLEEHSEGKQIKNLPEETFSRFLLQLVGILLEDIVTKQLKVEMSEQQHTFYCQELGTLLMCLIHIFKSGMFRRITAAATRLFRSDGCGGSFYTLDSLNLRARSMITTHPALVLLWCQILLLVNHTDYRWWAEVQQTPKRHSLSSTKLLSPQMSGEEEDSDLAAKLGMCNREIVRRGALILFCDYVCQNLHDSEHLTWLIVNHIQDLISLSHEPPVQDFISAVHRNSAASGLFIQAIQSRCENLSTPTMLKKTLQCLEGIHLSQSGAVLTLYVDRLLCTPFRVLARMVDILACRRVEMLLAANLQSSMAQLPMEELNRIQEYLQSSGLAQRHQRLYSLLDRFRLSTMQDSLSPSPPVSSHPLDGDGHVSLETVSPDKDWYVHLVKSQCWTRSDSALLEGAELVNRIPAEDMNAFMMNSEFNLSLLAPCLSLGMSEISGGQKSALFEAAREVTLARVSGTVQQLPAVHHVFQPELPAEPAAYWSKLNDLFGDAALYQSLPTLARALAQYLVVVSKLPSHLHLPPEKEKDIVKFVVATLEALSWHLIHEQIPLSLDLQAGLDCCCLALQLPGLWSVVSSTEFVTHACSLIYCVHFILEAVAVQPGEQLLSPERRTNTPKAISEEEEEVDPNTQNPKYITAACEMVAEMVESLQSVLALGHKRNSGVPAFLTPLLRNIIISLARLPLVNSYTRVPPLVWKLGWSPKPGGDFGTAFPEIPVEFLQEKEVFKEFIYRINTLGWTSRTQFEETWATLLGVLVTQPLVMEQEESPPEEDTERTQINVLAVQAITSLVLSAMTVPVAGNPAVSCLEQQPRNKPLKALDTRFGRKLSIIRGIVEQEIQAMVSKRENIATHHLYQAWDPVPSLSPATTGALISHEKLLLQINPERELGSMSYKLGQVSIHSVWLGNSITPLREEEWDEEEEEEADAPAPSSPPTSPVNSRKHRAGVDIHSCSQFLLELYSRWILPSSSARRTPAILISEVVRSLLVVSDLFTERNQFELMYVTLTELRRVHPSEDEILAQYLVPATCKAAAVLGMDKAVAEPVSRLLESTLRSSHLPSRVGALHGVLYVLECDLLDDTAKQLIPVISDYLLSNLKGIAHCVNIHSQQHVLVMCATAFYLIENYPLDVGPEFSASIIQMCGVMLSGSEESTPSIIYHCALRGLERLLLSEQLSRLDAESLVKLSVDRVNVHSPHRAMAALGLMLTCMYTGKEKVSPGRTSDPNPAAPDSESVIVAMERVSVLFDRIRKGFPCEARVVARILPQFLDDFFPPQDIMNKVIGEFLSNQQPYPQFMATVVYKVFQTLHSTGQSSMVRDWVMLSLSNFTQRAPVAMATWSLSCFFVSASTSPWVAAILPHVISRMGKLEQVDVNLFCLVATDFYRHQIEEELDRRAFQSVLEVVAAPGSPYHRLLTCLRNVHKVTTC
T1 sequence (P42858 whole entry, looked up, change not shown, the tested form may be a part): as above

B1: 3B5H10 Fab (Fab, V domains shown)
VH: QIQLVQSGPELKKPGETVKISCKASGYTFTTYGMSWVKQAPGKGFEWMGWINTYSGVPTYVDDFKGRFAFSLETSASTAYLQINNLKNEDTAVYFCARGGDNYLWFAYWGQGTLVTVSA
VL: QLVLTQSSSASFSLGASAKLTCTLNSQHSTYTIEWYQQQPLKPPKYVMELKKDGSHSTGDGIPDRFSGSSSGADRYLSISNIQPEDEAIYICGVGDTIKEQFVYVFGGGTKVTVL
Consider B1, for which the “stoichiometry N” value was 1 Fab:HD-16Q in assay [1]; 3 Fab:HD-39Q in assay [2]; 1 3B5H10 Fab:HD-16Q in assay [3]; > 1 3B5H10 Fab:HD-39Q and < 2 3B5H10 Fab:HD-39Q in assay [4]. In assay [2], the “N at 5 μM 3B5H10 Fab in the equilibration buffer (ratio with flat baseline)” value was ~2.6 Fab:HD-39Q.
